The results in this text go back to paper PMC3458536 (Nucleic Acids Research, 2012).

The chains are these.
B1: GST-U2AF35 (natural protein)
chain: MAEYLASIFGTEKDKVNCSFYFKIGACRHGDRCSRLHNKPTFSQTIALLNIYRNPQNSSQSADGLRCAVSDVEMQEHYDEFFEEVFTEMEEKYGEVEEMNVCDNLGDHLVGNVYVKFRREEDAEKAVIDLNNRWFNGQPIHAELSPVTDFREACCRQYEMGECTRGGFCNFMHLKPISRELRRELYGRRRKKHRSRSRSRERRSRSRDRGRGGGGGGGGGGGGRERDRRRSRDRERSGRF
B2: His-C (C-terminal B/A repeat domain of YB-1, amino acids 128-324) (domain or fragment)
chain: PGGVPVQGSKYAADRNHYRRYPRRRGPPRNYQQNYQNSESGEKNEGSESAPEGQAQQRRPYRRRRFPPYYMRRPYGRRPQYSNPPVQGEVMEGADNQGAGEQGRPVRQNMYRGYRPRFRRGPPRQRQPREDGNEEDKENQGDETQGQQPPQRRYRRNFNYRRRRPENPKPQDGKETKAADPPAENSSAPEAEQGGAE

Holding throughout (test): pull-down
Experiment [1] has as its target His-YB-1 (recombinant His-tagged full-length YB-1) (human, UniProt P67809 1-324).
Experiment [2] deals with GST-U2AF65 (UniProt P26368 1-475).
Experiment [3] addresses B1.

Chain of GST-U2AF65 (P26368 whole entry, one chain of several): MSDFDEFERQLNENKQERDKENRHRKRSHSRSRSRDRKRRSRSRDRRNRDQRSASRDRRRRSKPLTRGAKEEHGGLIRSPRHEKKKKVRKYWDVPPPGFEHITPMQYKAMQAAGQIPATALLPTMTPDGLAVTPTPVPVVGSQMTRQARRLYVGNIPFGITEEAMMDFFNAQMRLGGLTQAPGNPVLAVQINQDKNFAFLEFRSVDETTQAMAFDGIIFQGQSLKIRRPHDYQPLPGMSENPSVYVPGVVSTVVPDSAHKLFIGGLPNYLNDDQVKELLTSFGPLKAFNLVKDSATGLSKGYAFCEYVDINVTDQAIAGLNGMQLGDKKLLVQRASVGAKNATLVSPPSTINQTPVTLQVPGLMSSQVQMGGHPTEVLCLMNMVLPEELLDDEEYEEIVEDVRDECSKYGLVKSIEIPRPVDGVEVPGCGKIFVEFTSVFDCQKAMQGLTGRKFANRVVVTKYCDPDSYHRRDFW

Turning to B1, the binding result in experiment [1] is “binds”. As for B2, the binding result in experiment [2] and in experiment [3] was “binds” each time.
